Measured values as given in patent WO2021102332A1 (dated 2021).

T1: LRRC15 (leucine-rich repeat-containing protein 15) (human, UniProt Q8TF66 22-538, limits assumed)
T1 construct: The KD sentences say only 'LRRC15'; also called human LRRC15
T1 sequence (looked up): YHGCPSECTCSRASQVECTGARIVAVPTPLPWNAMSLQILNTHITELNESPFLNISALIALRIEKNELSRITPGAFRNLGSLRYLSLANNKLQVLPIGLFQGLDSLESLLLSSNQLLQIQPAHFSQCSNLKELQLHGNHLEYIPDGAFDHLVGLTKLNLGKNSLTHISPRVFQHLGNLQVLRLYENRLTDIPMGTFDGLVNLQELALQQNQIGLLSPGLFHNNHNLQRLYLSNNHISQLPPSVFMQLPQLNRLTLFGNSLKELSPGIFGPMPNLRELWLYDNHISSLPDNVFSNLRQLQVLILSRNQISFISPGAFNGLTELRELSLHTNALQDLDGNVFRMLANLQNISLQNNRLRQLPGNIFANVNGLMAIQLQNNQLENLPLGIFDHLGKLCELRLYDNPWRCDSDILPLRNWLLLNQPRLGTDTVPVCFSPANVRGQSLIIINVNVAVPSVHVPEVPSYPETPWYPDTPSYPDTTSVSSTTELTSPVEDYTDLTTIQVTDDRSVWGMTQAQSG


Each binder was assayed against T1, LRRC15 (leucine-rich repeat-containing …) (assay: binding analysis (koff and/or KD) of mAb expressed in CHO cells; method not named).

Row | Binder | Kd [nM]
1 | hzJ48 VHv3 / hzJ48 VLv1.1 (N92S) (antibody, V domains shown, Human IgG1 or IgG1null and human kappa constant regions) VH: QVQLVQSGAEVKKPGASVKVSCKASGYTFTDYYINWVRQAPGQGLEWMGWIYPGSGNTKYAQKFQGRVTMTRDTSTSTVYMELSSLRSEDTAVYYCARWGYGAYFTYWGQGTLVTVSS VL: DIQMTQSPSSLSASVGDRVTITCKASQNVGINVAWYQQKPGKAPKLLIYSASYRSSGVPSRFSGSGSGTDFTLTISSLQPEDFATYYCQQYSSFPYTFGGGTKVEIK | 1.7
2 | hzJ48 VHv3 / hzJ48 VLv1.2 (N92Q) (antibody, V domains shown, Human IgG1 or IgG1null and human kappa constant regions) VH: QVQLVQSGAEVKKPGASVKVSCKASGYTFTDYYINWVRQAPGQGLEWMGWIYPGSGNTKYAQKFQGRVTMTRDTSTSTVYMELSSLRSEDTAVYYCARWGYGAYFTYWGQGTLVTVSS VL: DIQMTQSPSSLSASVGDRVTITCKASQNVGINVAWYQQKPGKAPKLLIYSASYRSSGVPSRFSGSGSGTDFTLTISSLQPEDFATYYCQQYQSFPYTFGGGTKVEIK | 1.6
3 | hzJ48 VHv3 / hzJ48 VLv1.3 (S93A) (antibody, V domains shown, Human IgG1 or IgG1null and human kappa constant regions) VH: QVQLVQSGAEVKKPGASVKVSCKASGYTFTDYYINWVRQAPGQGLEWMGWIYPGSGNTKYAQKFQGRVTMTRDTSTSTVYMELSSLRSEDTAVYYCARWGYGAYFTYWGQGTLVTVSS VL: DIQMTQSPSSLSASVGDRVTITCKASQNVGINVAWYQQKPGKAPKLLIYSASYRSSGVPSRFSGSGSGTDFTLTISSLQPEDFATYYCQQYNAFPYTFGGGTKVEIK | 0.6
4 | hzK713 VHv1 / hzK713 VLv1 (antibody, V domains shown, Expressed in CHO cells; also called parent antibody comprising hzK713 VLv1 in combination with heavy chain hzK713 VHv1) VH: QVQLVQSGAEVKKPGASVKVSCKASGYTFTDYYMNWVRQAPGQRLEWMGRVSPSNGGTNYNQKFRGRVTITRDTSASTAYMELSSLRSEDTAVYYCARRGAGYSYYAMDYWGQGTTVTVSS VL: DIVMTQSPDSLAVSLGERATINCRASESVDSYGNSLMYWYQQKPGQPPKLLIYLASNLESGVPDRFSGSGSGTDFTLTISSLQAEDVAVYYCQQNNEDPLTFGGGTKVEIK | 0.208
5 | hzK713 VHv4 (G56A) / hzK713 VLv1 (antibody, V domains shown, The KD sentence prints 'hzJ48 VHv2-v4', read as hzK713 VHv2-v4; also called printed in the KD sentence as hzJ48 VHv4 with hzK713 VLv1) VH: QVQLVQSGAEVKKPGASVKVSCKASGYTFTDYYMNWVRQAPGQRLEWMGRVSPSNAGTNYNQKFRGRVTITRDTSASTAYMELSSLRSEDTAVYYCARRGAGYSYYAMDYWGQGTTVTVSS VL: DIVMTQSPDSLAVSLGERATINCRASESVDSYGNSLMYWYQQKPGQPPKLLIYLASNLESGVPDRFSGSGSGTDFTLTISSLQAEDVAVYYCQQNNEDPLTFGGGTKVEIK | 0.334
6 | hzK713 VHv3 (N55S) / hzK713 VLv1 (antibody, V domains shown, The KD sentence prints 'hzJ48 VHv2-v4', read as hzK713 VHv2-v4; also called printed in the KD sentence as hzJ48 VHv3 with hzK713 VLv1) VH: QVQLVQSGAEVKKPGASVKVSCKASGYTFTDYYMNWVRQAPGQRLEWMGRVSPSSGGTNYNQKFRGRVTITRDTSASTAYMELSSLRSEDTAVYYCARRGAGYSYYAMDYWGQGTTVTVSS VL: DIVMTQSPDSLAVSLGERATINCRASESVDSYGNSLMYWYQQKPGQPPKLLIYLASNLESGVPDRFSGSGSGTDFTLTISSLQAEDVAVYYCQQNNEDPLTFGGGTKVEIK | 0.212
7 | hzK713 VHv2 (N55Q) / hzK713 VLv1 (antibody, V domains shown, The KD sentence prints 'hzJ48 VHv2-v4', read as hzK713 VHv2-v4; also called printed in the KD sentence as hzJ48 VHv2 with hzK713 VLv1) VH: QVQLVQSGAEVKKPGASVKVSCKASGYTFTDYYMNWVRQAPGQRLEWMGRVSPSQGGTNYNQKFRGRVTITRDTSASTAYMELSSLRSEDTAVYYCARRGAGYSYYAMDYWGQGTTVTVSS VL: DIVMTQSPDSLAVSLGERATINCRASESVDSYGNSLMYWYQQKPGQPPKLLIYLASNLESGVPDRFSGSGSGTDFTLTISSLQAEDVAVYYCQQNNEDPLTFGGGTKVEIK | 0.307
8 | hzJ66 VHv2 (M102L) / hzJ66 VLv1 (antibody, V domains shown, also called printed as heavy chain variant hzJ66 VLv2 with light chain hzJ66 VHv1) VH: QVQLVQSGAEVKKPGASVKVSCKASGYTFTNYWIGWVRQAPGQGLEWMGDIYPRSGYTNYNEKFKGRVTMTRDTSTSTVYMELSSLRSEDTAVYYCARSGGLYYFDYWGQGTTVTVSS VL: not shown | < 0.001
9 | hzJ66 VHv2 (M102L) / hzJ66 VLv1.1 (N22S) (antibody, V domains shown, also called printed as heavy chain variant hzJ66 VLv2 with light chain hzJ66 v1.1) VH: QVQLVQSGAEVKKPGASVKVSCKASGYTFTNYWIGWVRQAPGQGLEWMGDIYPRSGYTNYNEKFKGRVTMTRDTSTSTVYMELSSLRSEDTAVYYCARSGGLYYFDYWGQGTTVTVSS VL: not shown | < 0.001
10 | hzF36 VHv6.2 (D54Q) / hzF36 VLv1 (antibody, V domains shown) VH: QVQLVQSGAEVKKPGASVKVSCKASGYTFTSFVIHWVRQAPGQGLEWMGYIYNQGTKYNERFRGRATLTSDKSTSTVYMELSSLRSEDTAVYYCARDYYFDYWGQGTLVTVSS VL: DIVMTQSPDSLAVSLGERATINCRASESVDYYGISFMNWYQQKPGQPPKLLIYAASNQGSGVPDRFSGSGSGTDFTLTISSLQAEDVAVYYCQQSKEVPYTFGGGTKVEIK | 0.34
11 | hzF36 VHv6 / hzF36 VLv1.1 (M4L) (antibody, V domains shown, also called parent heavy chain hzF36 VHv6 in combination with light chain hzF36 VLv1.1) VH: QVQLVQSGAEVKKPGASVKVSCKASGYTFTSFVIHWVRQAPGQGLEWMGYIYNDGTKYNERFRGRATLTSDKSTSTVYMELSSLRSEDTAVYYCARDYYFDYWGQGTLVTVSS VL: DIVLTQSPDSLAVSLGERATINCRASESVDYYGISFMNWYQQKPGQPPKLLIYAASNQGSGVPDRFSGSGSGTDFTLTISSLQAEDVAVYYCQQSKEVPYTFGGGTKVEIK | 0.33
12 | hzF36 VHv6.4 (G55A) / hzF36 VLv1 (antibody, V domains shown) VH: QVQLVQSGAEVKKPGASVKVSCKASGYTFTSFVIHWVRQAPGQGLEWMGYIYNDATKYNERFRGRATLTSDKSTSTVYMELSSLRSEDTAVYYCARDYYFDYWGQGTLVTVSS VL: DIVMTQSPDSLAVSLGERATINCRASESVDYYGISFMNWYQQKPGQPPKLLIYAASNQGSGVPDRFSGSGSGTDFTLTISSLQAEDVAVYYCQQSKEVPYTFGGGTKVEIK | 0.32

These binders were tested against T1, LRRC15 (leucine-rich repeat-containing …) (assay: binding analysis (koff and/or KD); method not named).

Row | Binder | Kd [pM]
13 | hzJ66 VHv1 / hzJ66 VLv1 (antibody, V domains shown, The KD sentence says only 'the parent humanized ... antibody'; also called parent humanized antibody (J66)) VH: QVQLVQSGAEVKKPGASVKVSCKASGYTFTNYWIGWVRQAPGQGLEWMGDIYPRSGYTNYNEKFKGRVTMTRDTSTSTVYMELSSLRSEDTAVYYCARSGGMYYFDYWGQGTTVTVSS VL: not shown | < 1
14 | mAb J66 (mouse) (antibody, V domains shown, From hybridomas of immunized mice; also called parent mouse antibody; Bin A2) VH: QVQMKESGTELVRPGTSVKMSCKAAGYTFTNYWIGWVKQRPGHGPEWIGDIYPRSGYTNYNEKFKGKATLTADTSSSTAYMQLSSLTSEDSTIYFCARSGGMYYFDYWGQGTTLTVSS VL: not shown | < 1
